Source: publication PMC5733570

Key:
[1] = target: TbTrm140 (3-methylcytosine methyltransferase of Trypanosoma brucei), wild type (T. brucei); test: SEC
[2] = target: TbTrm140 N-terminal deletion mutant (TbTrm140 ΔS2-G17) (T. brucei); test: SEC

Substance	stoichiometry N [1]	stoichiometry N [2]
TbTrm140 (3-methylcytosine methyltransferase of Trypanosoma brucei), wild type (enzyme)	2	–
TbTrm140 N-terminal deletion mutant (TbTrm140 ΔS2-G17) (enzyme)	–	2
